{"source": "patent US5686592", "assay_in_all_cases": "filter", "key": {"[1]": {"biological_target": "T1, mouse IgE (Mus musculus) (UniProt P06336)", "T1 sequence": "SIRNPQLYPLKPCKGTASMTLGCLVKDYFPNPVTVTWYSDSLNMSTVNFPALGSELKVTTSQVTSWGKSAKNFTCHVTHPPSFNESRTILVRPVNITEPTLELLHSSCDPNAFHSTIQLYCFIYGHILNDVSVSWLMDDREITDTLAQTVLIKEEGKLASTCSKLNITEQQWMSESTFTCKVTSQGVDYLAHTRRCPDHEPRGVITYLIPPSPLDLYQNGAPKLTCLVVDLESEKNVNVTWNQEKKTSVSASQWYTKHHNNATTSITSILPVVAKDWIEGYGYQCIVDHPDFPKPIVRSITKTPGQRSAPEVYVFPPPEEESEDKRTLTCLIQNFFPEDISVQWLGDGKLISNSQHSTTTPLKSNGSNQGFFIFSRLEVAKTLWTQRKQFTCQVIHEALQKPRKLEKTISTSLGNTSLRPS"}, "[2]": {"system": "human IgE (Homo sapiens), P01854-1", "sequence (P01854 other isoform, or with tags, fused parts or gaps)": "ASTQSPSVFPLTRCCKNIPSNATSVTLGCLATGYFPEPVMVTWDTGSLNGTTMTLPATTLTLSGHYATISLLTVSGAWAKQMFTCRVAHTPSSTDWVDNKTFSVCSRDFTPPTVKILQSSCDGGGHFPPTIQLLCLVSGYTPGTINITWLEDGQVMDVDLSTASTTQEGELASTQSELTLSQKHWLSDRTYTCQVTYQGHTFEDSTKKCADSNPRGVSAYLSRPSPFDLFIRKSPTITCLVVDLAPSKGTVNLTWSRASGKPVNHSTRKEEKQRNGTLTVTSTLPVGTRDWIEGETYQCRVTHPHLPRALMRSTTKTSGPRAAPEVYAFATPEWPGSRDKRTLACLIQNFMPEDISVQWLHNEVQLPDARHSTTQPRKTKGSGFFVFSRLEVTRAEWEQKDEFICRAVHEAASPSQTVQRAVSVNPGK"}, "[3]": {"biological_target": "T2, rat IgE (Rattus norvegicus) (UniProt P01855)", "T2 sequence": "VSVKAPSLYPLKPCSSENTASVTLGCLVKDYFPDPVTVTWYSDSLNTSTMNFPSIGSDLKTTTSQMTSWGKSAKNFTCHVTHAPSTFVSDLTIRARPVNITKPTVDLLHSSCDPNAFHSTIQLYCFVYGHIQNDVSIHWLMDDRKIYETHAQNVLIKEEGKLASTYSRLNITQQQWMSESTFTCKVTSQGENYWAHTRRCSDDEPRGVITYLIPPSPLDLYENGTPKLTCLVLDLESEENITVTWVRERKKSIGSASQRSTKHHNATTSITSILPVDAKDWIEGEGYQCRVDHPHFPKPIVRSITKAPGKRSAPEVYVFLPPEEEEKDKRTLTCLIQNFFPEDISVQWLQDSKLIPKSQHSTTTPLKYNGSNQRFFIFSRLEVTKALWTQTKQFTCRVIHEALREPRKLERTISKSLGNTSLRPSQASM", "details": "2'-NH2 on all C and U; specificity control"}, "[4]": {"system": "human IgG (Homo sapiens)", "details": "specificity control"}, "[5]": {"details": "2'-NH2 on all C and U, specificity control"}, "[6]": {"details": "2'-NH2 on all C and U, starting pool"}}, "data": [{"sequence": "CTACCTACGATCTGACTAGCNNNNNNNNNNNNNNNNNNNNNNNNNNNNNNNNNNNNNNNNGCTTACTCTCATGTAGTTCC [40NBHI starting DNA pool]", "values": [{"measurement": "Kd", "setting": "[1]; starting pool", "result": "> 1", "unit": "µM"}, {"measurement": "Kd", "setting": "[2]; starting pool", "result": "> 50", "unit": "µM"}]}, {"sequence": "CTACCTACGATCTGACTAGCNNNNNNNNNNNNNNNNNNNNNNNNNNNNNNNNNNNNNNNNGCTTACTCTCATGTAGTTCC [Round 15 human IgE DNA pool]", "values": [{"measurement": "Kd", "setting": "[2]; enriched pool, modified PBS, 1 mM Mg2+, 37 C", "result": 0.01, "unit": "µM"}]}, {"sequence": "CTACCTACGATCTGACTAGCNNNNNNNNNNNNNNNNNNNNNNNNNNNNNNNNNNNNNNNNGCTTACTCTCATGTAGTTCC [Round 15 mouse IgE DNA pool]", "values": [{"measurement": "Kd", "setting": "[1]; enriched pool", "result": 0.02, "unit": "µM"}, {"measurement": "Kd", "setting": "[2]; mouse-IgE-enriched pool against human IgE", "result": "> 50", "unit": "µM"}]}, {"sequence": "GGGAGGACGAUGCGGGUGUGAAUGGUGUUGUGAGG [IGEL1.2]", "values": [{"measurement": "Kd", "setting": "[1]; [5]", "result": "> 5", "unit": "µM"}, {"measurement": "Kd", "setting": "[3]", "result": "> 5", "unit": "µM"}]}, {"sequence": "GGGAGGACGAUGCGGGUGUGGGGCG [IGEL2.2]", "values": [{"measurement": "Kd", "setting": "[1]; [5]", "result": "> 5", "unit": "µM"}, {"measurement": "Kd", "setting": "[3]", "result": "> 5", "unit": "µM"}]}, {"sequence": "GGGAGGACGAUGCGGNNNNNNNNNNNNNNNNNNNNNNNNNNNNNNNNNNNNNNNNCAGACGACUCGCCCGA [40N7 starting RNA pool]", "values": [{"measurement": "Kd", "setting": "[2]; [6]", "result": "> 50", "unit": "µM"}]}, {"sequence": "GGGAGGACGAUGCGGNNNNNNNNNNNNNNNNNNNNNNNNNNNNNNNNNNNNNNNNNNNNNNNNNNNNNNNNNNNNCAGACGACUCGCCCGA [60N7 starting RNA pool]", "values": [{"measurement": "Kd", "setting": "[2]; [6]", "result": "> 50", "unit": "µM"}]}, {"sequence": "GGGGCACGTTTATCCGTCCCTCCTAGTGGCGTGCCCC [D17.4]", "values": [{"measurement": "Kd", "setting": "[1]; specificity control", "result": "> 10", "unit": "µM"}, {"measurement": "Kd", "setting": "[4]", "result": "> 10", "unit": "µM"}]}]}
